Patent US20100310646A1 (AARHUS UNIVERSITET, published 2010)
Where two headings read alike, the source gives them in different places.

B1: PAC2 (PAPP-A exosite antibody, scFv) (scFv)
scFv: EVQLLESGGGLVQPGGSLRLSCAASGFTFSSYAMSWVRQAPGKGLEWVSSIQADGTRTGYADSVKGRFTISRDNSKNTLYLQMNSLRAEDTAVYYCAKQRGIFDYWGQGTLVTVSSGGGGSGGGGSGGGGSTDIQMTQSPSSLSASVGDRVTITCRASQSISSYLNWYQQKPGKAPKLLIYRASGLQSGVPSRFSGSGSGTDFTLTISSLQPEDFATYYCQQSHHYPSTFGQGTKVEIKRAAAHHHHHHGAAEQKLISEEDLNGAA
notes: Selected from the Tomlinson I+J phage libraries; also called scFv PAC2
B2: PAC1 (PAPP-A exosite antibody, scFv) (scFv)
scFv: EVQLLESGGGLVQPGGSLRLSCAASGFTFSSYAMSWVRQAPGKGLEWVSVITDMGRTTRYADSVKGRFTISRDNSKNTLYLQMNSLRAEDTAVYYCAKGLRQFDYWGQGTLVTVSSGGGGSGGGGSGGGGSTDIQMTQSPSSLSASVGDRVTITCRASQSISSYLNWYQQKPGKAPKLLIYHASQLQSGVPSRFSGSGSGTDFTLTISSLQPEDFATYYCQQYGGNPTTFGQGTKVEIKRAAAHHHHHHGAAEQKLISEEDLNGAA
notes: Selected from the Tomlinson I+J phage libraries and produced in E. coli HB2151; Purified scFv was used in SPR and cleavage assays; also called scFv PAC1; antibody PAC1

Key:
human PAPP-A(E483Q) [1] = molecular target: T1, human PAPP-A(E483Q) (human, UniProt Q13219 82-1627); experiment: SPR, calcium ion dependence of binding to immobilized PAPP-A
T1 construct: Active-site mutant; also called immobilized PAPP-A (SPR)
Experimental: (§1) Surface plasmon resonance analysis—Surface plasmon resonance experiments were carried out on a BIAcore T100 instrument (BIAcore AB, Uppsala, Sweden) using series S CM5 sensor chips and coupling reagents supplied by the manufacturer. Affinity purified PAPP-A(E483Q), 10 μg/mL in 10 mM sodium acetate, pH 5.0, was immobilized (at a level of 500 resonance units (RU)) to the activated chip at 25° C. Remaining activated groups were blocked by 1M ethanolamine. Purified antibodies (0.35-11 nM) diluted in 10 mM HEPES, 150 mM NaCl, 1 mM CaCl₂, 0.05% Tween-20, pH 7.4 (HBS), were injected over the sensor chip for 2 min at a flow rate of 30 μL/min at 37° C. Recorded signals were subtracted the background signal, determined by the injection of an irrelevant antibody. […] Data were analyzed using the software of the manufacturer (BIAcore T100 evaluation Software version 1.1).
However, the binding was only disturbed when PAC1 was injected with EDTA onto a chip equilibrated with the calcium ion containing buffer (FIG. 8B). Following EDTA treatment, equilibration of the flow cell using calcium ion containing buffer restored its ability to bind PAC1 (FIG. 8B). […] Similar results were obtained with PAC2 (not shown).

human PAPP-A(D1484A) = human PAPP-A(D1484A) (human, UniProt Q13219 82-1627); experiment: binding to alanine mutants of human PAPP-A (ELISA per paragraph 531)
Experimental: (§2) A, PAC1 binding to human PAPP-A/PAPP-A2 chimeras or truncated human PAPP-A variants analyzed by ELISA. Sequence derived from PAPP-A is shown by open bars, and absence of binding (−) or binding (+) is indicated. […] Samples with or without EDTA (10 mM) were injected (120 s) followed by dissociation (180 s) (solid lines). […] The absence of binding (−) or binding (+) is indicated. PAC5, which was used as a positive control, binds to an epitope of PAPP-A located N-terminal to CCP1.
(§3) Determination of antibody specificity and mapping of antibody binding—Mapping of antibody binding was carried out by ELISA using PAPP-A/PAPP-A2 chimeric proteins, and mutated variants of PAPP-A. The proteins were immobilized with polyclonal PAPP-A antibodies, and binding of phage antibodies were analyzed as detailed above.

human PAPP-A(D1499A) = human PAPP-A(D1499A) (human, UniProt Q13219 82-1627); experiment: as above
Experimental: as §2, §3

human PAPP-A(D1502A) = human PAPP-A(D1502A) (human, UniProt Q13219 82-1627); experiment: as above
Experimental: as §2, §3

[2] = molecular target: human PAPP-A K1509A mutant (human, UniProt Q13219 82-1627); experiment: as above
Experimental: as §2, §3

[3] = molecular target: human PAPP-A D1525A mutant (human, UniProt Q13219 82-1627); experiment: as above
Experimental: as §2, §3

[4] = molecular target: human PAPP-A R1529A mutant (human, UniProt Q13219 82-1627); experiment: as above
Experimental: as §2, §3

[5] = molecular target: human PAPP-A D1530A mutant (human, UniProt Q13219 82-1627); experiment: as above
Experimental: as §2, §3

[6] = molecular target: human PAPP-A E1535A mutant (human, UniProt Q13219 82-1627); experiment: as above
Experimental: as §2, §3

[7] = molecular target: T2, human pregnancy-associated plasma protein-A (PAPP-A) (human, UniProt Q13219 82-1627); experiment: cell-based or functional assay
[8] = molecular target: T2, human pregnancy-associated plasma …; experiment: cell-based or functional assay; remark: listed apart in the source
human PAPP-A(E483Q) [9] = molecular target: T1, human PAPP-A(E483Q); experiment: SPR (BIAcore T100), PAPP-A immobilized on CM5 chip, PAC1 0.35-11 nM injected at 37 C, 1:1 model, global fit; SPR, 37 C, PAPP-A on the chip
Experimental: (§4) A) Cleavage of IGFBP-4 (10 nM) by human PAPP-A (0.1 nM) in the presence of PAC1 (1.5 μM). The cleavage reaction was incubated (37° C.), and samples were taken out at intervals from 0 to 60 min, as indicated above each lane. The cleavage was visualized by SDS-PAGE followed by autoradiography. At 60 min, a faint band is visible at the position of the cleavage products (c). B) Cleavage of IGFBP-4 (10 nM) by murine PAPP-A (0.1 nM) for 1 h at 37° C. in the presence of 0-750 nM PAC1, as indicated above each lane. C) Cleavage of IGFBP-4 (10 nM) by PAPP-A (0.1 nM) was analyzed at different concentrations of PAC1. Relative initial velocities, determined independently, are plotted as a function of PAC1 concentration. All concentrations were determined by amino acid analysis (IGFBP-4 and PAC1) or ELISA (PAPP-A). Assuming competitive inhibition, an inhibitory constant was calculated (Kᵢ=1.2 nM±0.1). D) Sensorgrams showing binding of PAC1 to immobilized human PAPP-A. Purified PAC1 (0.35, 0.7, 1.4, 2.8, 5.5, and 11 nM) was injected onto the chip at 37° C. for 120 s followed by dissociation for 300 s.
as §1

[10] = molecular target: T2, human pregnancy-associated plasma …; experiment: inhibition of IGFBP-4 (10 nM) cleavage by human PAPP-A (0.1 nM), relative initial velocities against PAC1 concentration, competitive inhibition assumed; IGFBP-4 cleavage assay, competitive inhibition assumed
Experimental: as §4, with “D) Sensorgrams showing binding of PAC1 to immobilized human PAPP-A. Purified PAC1 (0.35, 0.7, 1.4, 2.8, 5.5, and 11 nM) was injected onto the chip at 37° C. for 120 s followed by dissociation for 300 s.” left out
Measurement of proteolytic activity—Proteolytic activity of PAPP-A against IGFBP-4 and -5 was analyzed as previously described in detail (45). In brief, purified substrates, quantified by amino acid analysis, were labelled with ¹²⁵I (Amersham Biosciences). […] The degree of cleavage was determined by quantification of band intensities using a Typhoon imaging system (GE Healthcare), and background levels (mock signals) were subtracted. […]

T2 sequence (Q13219 other isoform, or with tags, fused parts or gaps limits assumed): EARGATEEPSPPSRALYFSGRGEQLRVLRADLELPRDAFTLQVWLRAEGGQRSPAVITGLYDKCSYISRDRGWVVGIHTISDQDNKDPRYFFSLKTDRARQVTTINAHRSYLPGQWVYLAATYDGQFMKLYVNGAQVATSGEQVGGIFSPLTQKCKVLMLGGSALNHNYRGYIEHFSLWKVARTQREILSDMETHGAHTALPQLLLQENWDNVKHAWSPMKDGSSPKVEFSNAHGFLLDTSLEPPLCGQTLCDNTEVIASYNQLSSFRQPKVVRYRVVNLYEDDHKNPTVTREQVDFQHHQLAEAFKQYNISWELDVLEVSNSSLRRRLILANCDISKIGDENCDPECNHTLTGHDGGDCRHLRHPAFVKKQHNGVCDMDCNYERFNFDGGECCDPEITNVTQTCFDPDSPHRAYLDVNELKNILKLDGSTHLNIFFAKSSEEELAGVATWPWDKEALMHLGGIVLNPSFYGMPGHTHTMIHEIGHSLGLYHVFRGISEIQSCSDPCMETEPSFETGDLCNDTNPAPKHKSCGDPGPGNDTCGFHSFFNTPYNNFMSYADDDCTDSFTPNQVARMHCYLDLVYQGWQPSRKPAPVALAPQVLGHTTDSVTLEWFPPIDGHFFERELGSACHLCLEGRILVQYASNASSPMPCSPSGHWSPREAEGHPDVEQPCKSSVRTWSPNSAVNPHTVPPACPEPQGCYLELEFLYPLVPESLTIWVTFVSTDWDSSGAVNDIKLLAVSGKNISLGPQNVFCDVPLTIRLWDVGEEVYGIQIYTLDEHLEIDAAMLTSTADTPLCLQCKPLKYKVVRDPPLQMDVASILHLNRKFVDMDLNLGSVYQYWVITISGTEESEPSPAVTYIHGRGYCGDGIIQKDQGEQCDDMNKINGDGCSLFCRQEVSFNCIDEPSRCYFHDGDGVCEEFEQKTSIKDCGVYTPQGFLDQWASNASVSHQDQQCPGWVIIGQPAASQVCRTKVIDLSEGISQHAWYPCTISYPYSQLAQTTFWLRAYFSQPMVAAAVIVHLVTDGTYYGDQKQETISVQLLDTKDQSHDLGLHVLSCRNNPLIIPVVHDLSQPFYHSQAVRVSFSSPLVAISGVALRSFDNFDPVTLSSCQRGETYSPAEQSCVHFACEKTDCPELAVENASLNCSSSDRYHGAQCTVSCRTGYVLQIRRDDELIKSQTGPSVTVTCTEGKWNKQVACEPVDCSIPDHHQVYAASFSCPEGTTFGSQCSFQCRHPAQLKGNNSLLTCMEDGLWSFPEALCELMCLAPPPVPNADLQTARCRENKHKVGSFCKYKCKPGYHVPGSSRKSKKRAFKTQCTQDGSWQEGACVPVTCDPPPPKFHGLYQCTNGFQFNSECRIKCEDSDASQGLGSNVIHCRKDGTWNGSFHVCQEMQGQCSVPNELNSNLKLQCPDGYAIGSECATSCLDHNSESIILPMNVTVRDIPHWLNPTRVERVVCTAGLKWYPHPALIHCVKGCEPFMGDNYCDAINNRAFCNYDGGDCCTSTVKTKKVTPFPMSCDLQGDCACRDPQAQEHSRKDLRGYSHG
T1 sequence (Q13219 other isoform, or with tags, fused parts or gaps E483Q E483Q limits assumed): as the sequence (Q13219 other isoform, or with tags, fused parts or gaps limits assumed) above, with E483Q counted along it
human PAPP-A(D1484A), sequence (Q13219 other isoform, or with tags, fused parts or gaps D1484A D1484A limits assumed): as the sequence (Q13219 other isoform, or with tags, fused parts or gaps limits assumed) above, with D1484A counted along it
human PAPP-A R1529A mutant, sequence (Q13219 other isoform, or with tags, fused parts or gaps R1529A R1529A limits assumed): as the sequence (Q13219 other isoform, or with tags, fused parts or gaps limits assumed) above, with R1529A counted along it
human PAPP-A(D1502A), sequence (Q13219 other isoform, or with tags, fused parts or gaps D1502A D1502A limits assumed): as the sequence (Q13219 other isoform, or with tags, fused parts or gaps limits assumed) above, with D1502A counted along it
human PAPP-A(D1499A), sequence (Q13219 other isoform, or with tags, fused parts or gaps D1499A D1499A limits assumed): as the sequence (Q13219 other isoform, or with tags, fused parts or gaps limits assumed) above, with D1499A counted along it
human PAPP-A D1530A mutant, sequence (Q13219 other isoform, or with tags, fused parts or gaps D1530A D1530A limits assumed): as the sequence (Q13219 other isoform, or with tags, fused parts or gaps limits assumed) above, with D1530A counted along it
human PAPP-A E1535A mutant, sequence (Q13219 other isoform, or with tags, fused parts or gaps E1535A E1535A limits assumed): as the sequence (Q13219 other isoform, or with tags, fused parts or gaps limits assumed) above, with E1535A counted along it
human PAPP-A K1509A mutant, sequence (Q13219 other isoform, or with tags, fused parts or gaps K1509A K1509A limits assumed): as the sequence (Q13219 other isoform, or with tags, fused parts or gaps limits assumed) above, with K1509A counted along it
human PAPP-A D1525A mutant, sequence (Q13219 other isoform, or with tags, fused parts or gaps D1525A D1525A limits assumed): as the sequence (Q13219 other isoform, or with tags, fused parts or gaps limits assumed) above, with D1525A counted along it

Binder	binding result (human PAPP-A(E483Q) [1])	binding result (human PAPP-A(D1484A))	binding result (human PAPP-A(D1499A))	binding result (human PAPP-A(D1502A))	binding result [2]	binding result [3]	binding result [4]	binding result [5]	binding result [6]	IC50 (read off the curve) [7] [nM]	IC50 (read off the curve) [8] [nM]	Kd (human PAPP-A(E483Q) [9]) [nM]	koff (human PAPP-A(E483Q) [9]) [s⁻¹]	kon (human PAPP-A(E483Q) [9]) [M⁻¹ s⁻¹]	Ki [10] [nM]
B1	binds	no binding	no binding	no binding	binds	binds	no binding	no binding	binds						
B2		no binding	no binding	no binding			no binding	no binding		~1	~2	0.25	0.00109	4.36e+06	1.2
